One assay concerns the target DPP8/V5/His (human) (UniProt Q6V1X1). Nature of the assay: cell-based or functional assay.
Another assay addresses DPPIV/V5/His (human) (UniProt P27487). Description: cell-based or functional assay.

Chain of DPPIV/V5/His (human) (P27487 whole entry, form in doubt): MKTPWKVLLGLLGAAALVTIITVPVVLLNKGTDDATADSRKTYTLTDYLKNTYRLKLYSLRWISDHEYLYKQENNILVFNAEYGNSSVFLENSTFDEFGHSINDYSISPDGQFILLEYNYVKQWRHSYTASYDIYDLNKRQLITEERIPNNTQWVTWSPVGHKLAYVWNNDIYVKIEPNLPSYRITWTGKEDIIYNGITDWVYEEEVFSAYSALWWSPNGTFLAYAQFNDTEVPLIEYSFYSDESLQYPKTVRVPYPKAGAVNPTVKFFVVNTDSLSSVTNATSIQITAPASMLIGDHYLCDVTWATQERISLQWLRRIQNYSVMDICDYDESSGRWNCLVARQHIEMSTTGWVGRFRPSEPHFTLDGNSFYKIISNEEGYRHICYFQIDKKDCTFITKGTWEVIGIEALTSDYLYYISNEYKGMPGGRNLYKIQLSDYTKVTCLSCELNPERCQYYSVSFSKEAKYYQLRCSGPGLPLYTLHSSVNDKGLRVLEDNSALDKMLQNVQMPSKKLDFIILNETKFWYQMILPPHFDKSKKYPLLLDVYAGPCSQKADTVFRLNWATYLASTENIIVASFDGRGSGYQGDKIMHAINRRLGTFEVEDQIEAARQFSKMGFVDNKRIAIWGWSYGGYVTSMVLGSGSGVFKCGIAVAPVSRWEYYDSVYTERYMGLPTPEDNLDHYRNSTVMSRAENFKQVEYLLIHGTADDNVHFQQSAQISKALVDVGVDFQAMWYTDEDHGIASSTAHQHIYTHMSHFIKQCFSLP
Chain of DPP8/V5/His (human) (Q6V1X1 17-898): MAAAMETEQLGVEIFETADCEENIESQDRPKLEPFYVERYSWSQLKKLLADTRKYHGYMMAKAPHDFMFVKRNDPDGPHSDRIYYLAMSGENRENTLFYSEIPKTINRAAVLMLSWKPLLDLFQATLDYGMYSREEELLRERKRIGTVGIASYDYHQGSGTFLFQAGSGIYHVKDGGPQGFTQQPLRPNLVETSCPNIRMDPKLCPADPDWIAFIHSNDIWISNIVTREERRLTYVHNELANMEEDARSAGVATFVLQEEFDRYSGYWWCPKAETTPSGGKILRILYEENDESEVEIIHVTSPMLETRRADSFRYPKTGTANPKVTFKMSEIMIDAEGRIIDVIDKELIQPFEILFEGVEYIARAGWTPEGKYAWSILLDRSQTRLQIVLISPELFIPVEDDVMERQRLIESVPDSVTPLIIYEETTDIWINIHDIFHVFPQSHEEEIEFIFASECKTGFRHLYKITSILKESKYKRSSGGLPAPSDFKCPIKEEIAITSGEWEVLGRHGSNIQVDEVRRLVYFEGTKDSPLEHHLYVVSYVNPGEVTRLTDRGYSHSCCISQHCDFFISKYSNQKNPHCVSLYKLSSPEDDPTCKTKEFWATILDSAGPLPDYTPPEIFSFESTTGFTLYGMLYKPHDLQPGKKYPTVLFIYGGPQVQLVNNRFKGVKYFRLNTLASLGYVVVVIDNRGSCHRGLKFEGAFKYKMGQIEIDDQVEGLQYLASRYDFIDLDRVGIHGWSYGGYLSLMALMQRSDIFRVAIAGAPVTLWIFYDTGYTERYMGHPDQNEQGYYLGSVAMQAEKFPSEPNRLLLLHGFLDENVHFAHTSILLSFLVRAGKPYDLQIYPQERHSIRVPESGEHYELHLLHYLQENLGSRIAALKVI

As for Ala-Pro-Gly (peptide), in the assay with DPP8/V5/His (human), the Residual activity (% of control), H-Ala-Pro-pNA hydrolysis, peptide at 10 mM was 51 % of control. In the assay with DPPIV/V5/His (human), the Residual activity (% of control), H-Gly-Pro-pNA hydrolysis, peptide at 10 mM was 67 % of control.

Source of the values: patent publication US20040191826A1.
